These results are taken from patent publication US20170305997A1 (Janssen / Centocor, published 2017).

Usually EC50 stands for the concentration needed to bring the measured effect to its halfway point.

Test [1] addresses Recombinant human c-Met Fc chimera (human) (UniProt P08581). Description: SPR, serine scan in the ECB15 context. (In SPR one partner is held on a chip, and binding of the other changes the refractive index at the surface.)
The target of test [2] is T1, human c-Met on cells (human, UniProt P08581 25-1390).
T1 construct: Endogenous c-Met of human tumour cell lines; also called NCI-H441 cells; U87-MG
Description: binding to NCI-H441 cells, anti-His fluorescence. Here is the method: Purified FN3 domains (50 μL/well; 0 to 1000 nM) were added to the cells for 1 hour at 4° C. in duplicate plates. […] Cells were incubated with biotinylated-anti HIS antibody (diluted 1:160 in FACS stain buffer, 50 μL/well, R&D Systems, cat # BAM050) for 30 minutes at 4° C. […] Cells were washed three times with FACS stain buffer (150 μL/well) and left in FACS stain buffer (50 μL/well).

The target in test [3] is T1, human c-Met on cells. Description: cell-based or functional assay.
The target of test [4] is T1, human c-Met on cells. Description: cell-based or functional assay. This is another data set of the same source.
Test [5] concerns the target T1, human c-Met on cells. Description: cell-based or functional assay. This is another data set of the same source.

B1: A3 F36S (designed binder)
chain: LPAPKNLVVSEVTEDSARLSWDDPWAFYESFLIQYQESEKVGEAIVLTVPGSERSYDLTGLKPGTEYTVSIYGVHNVYKDTNMRGLPLSAIFTTAPAPAPAPAPLPAPKNLVVSRVTEDSARLSWTAPDAAFDSFWIRYSEFLGSGEAIVLTVPGSERSYDLTGLKPGTEYVVNIMGVKGGKISPPLSAIFTT
On to B1, for which the Fold Change of KD against the parent in test [1] was 68 fold.

B2: A3 F38S (designed binder)
chain: LPAPKNLVVSEVTEDSARLSWDDPWAFYESFLIQYQESEKVGEAIVLTVPGSERSYDLTGLKPGTEYTVSIYGVHNVYKDTNMRGLPLSAIFTTAPAPAPAPAPLPAPKNLVVSRVTEDSARLSWTAPDAAFDSFWIRYFESLGSGEAIVLTVPGSERSYDLTGLKPGTEYVVNIMGVKGGKISPPLSAIFTT
Take B2: the Fold Change of KD against the parent in test [1] was determined as 1790 fold.

B3: A3 W32S (designed binder)
chain: LPAPKNLVVSEVTEDSARLSWDDPWAFYESFLIQYQESEKVGEAIVLTVPGSERSYDLTGLKPGTEYTVSIYGVHNVYKDTNMRGLPLSAIFTTAPAPAPAPAPLPAPKNLVVSRVTEDSARLSWTAPDAAFDSFSIRYFEFLGSGEAIVLTVPGSERSYDLTGLKPGTEYVVNIMGVKGGKISPPLSAIFTT
For the molecule B3, the Fold Change of KD against the parent in test [1] was 74.5 fold.

B4: P114AR5P74-A5 (designed binder)
chain: LPAPKNLVVSRVTEDSARLSWTAPDAAFDSFWIRYDEVVVGGEAIVLTVPGSERSYDLTGLKPGTEYYVNILGVKGGSISVPLSAIFTTHHHHHH
In test [2], B4 returned an EC50 of 18.7 nM. Besides, in test [3], the “Inhibition of Proliferation of U87-MG cells (IC50)” value is 464 nM and the “pMet inhibition in H441 cells (IC50)” value worked out at 1.08 µM. The “IC50 (nM) (ERK phosphorylation)” value in test [4] worked out at 2370 nM. In addition, the “inhibition of c-Met phosphorylation in NCI-H292 cells (IC50)” value in test [5] was 610 nM.
